Source: patent publication US20100273722A1, “MODIFIED MINIATURE PROTEINS” (Yale University, priority 2007, published 2010)

Experiments:
[1] = target: Down-regulated Hck kinase (containing an N-terminal His6 tag); assay: cell-based or functional assay
[2] = target: human Fyn (residues 81-142) SH3 domain-GST fusion protein (human), P06241; assay: fluorescence polarization, 50 nM labeled peptide, SH3-GST titrated
[3] = target: T1, human Lck (residues 62-128) SH3 domain-GST fusion (human), P06239; assay: as above
T1 chain: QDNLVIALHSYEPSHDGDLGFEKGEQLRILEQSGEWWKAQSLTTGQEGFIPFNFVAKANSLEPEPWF

[4] = target: human Lyn (residues 62-122) SH3 domain-GST fusion protein (human), P07948; assay: as above
Sequence of human Lyn (residues 62-122) SH3 domain-GST fusion protein (human), P07948 (P07948 62-122): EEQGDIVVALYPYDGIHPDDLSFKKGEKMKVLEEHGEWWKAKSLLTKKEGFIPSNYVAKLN

Sequence of human Fyn (residues 81-142) SH3 domain-GST fusion protein (human), P06241 (P06241 81-142): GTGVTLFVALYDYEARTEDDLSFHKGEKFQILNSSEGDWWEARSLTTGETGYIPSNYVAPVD

Binder | Activity (nmol · sec^-1), activator at 50 micromolar (nmol · sec^-1) [1] | Fold-Activation, activator at 50 micromolar [1] | Kact (concentration of activator at half-maximal activation) [1] | Kd [2] | Kd [3] | Kd [4]
APPLPPRNRGDDAPVEDLIRFYDNLQQYLNVVTRHRY (designed binder) [PP2] | 139 | 13 fold | 48 µM | – | – | –
APPLPPRNRPRDAPVEDLIRFYDNLQQYLNVVTRHRY (designed binder) [PP3] | 83.9 | 7 fold | 48 µM | – | – | –
APPLPPRNPGDDAPVEDLIRFYDNLQQYLNVVTRHRY (designed binder) [PP1] | 83.6 | 8 fold | – | – | – | –
CGGAPPLPPRNRPR (modifications not checked) [^Flu1, fluorescently labeled analog of Peptide 1] | – | – | – | 1400 nM | > 20000 nM | 2000 nM
